Data from the supplement of paper PMC10567573.

B1: RPS21 (parent)
chain: AEVSWEPGRREGCDICAGKAGCPI
B2: RHOBTB3 (parent)
chain: DSCCPAGIFQAMCLLICAEMYQVS

Variants of: B1
Assay: protein stability index of a GFP-peptide fusion (GPS, HEK-293T) (PSI 1-6); higher = more stable
Conditions: c terminus: a fixed tail appended
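Also: lentivirally expressed fusions sorted by FACS into six bins by GFP to DsRed ratio, PSI derived from sequencing read proportions per bin multiplied by bin number.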

Variant | protein stability index
AEVSWEPGRREGCDICAGKAYCPI [G21Y] | 3.56
AEVSWEPGRREGCDICAGKAGDPI [C22D] | 3.66
AEVSWEPGRREGCDICAGKAGEPI [C22E] | 3.88
AEVSWEPGRREGCDICAGKAGFPI [C22F] | 2.28
AEVSWEPGRREGCDICAGKAGHPI [C22H] | 2.9
AEVSWEPGRREGCDICAGKAGKPI [C22K] | 2.99
AEVSWEPGRREGCDICAGKAGMPI [C22M] | 3.11
AEVSWEPGRREGCDICAGKAGNPI [C22N] | 2.96
AEVSWEPGRREGCDICAGKAGPPI [C22P] | 3.34
AEVSWEPGRREGCDICAGKAGRPI [C22R] | 2.32
AEVSWEPGRREGCDICAGKAGWPI [C22W] | 2.82
AEVSWEPGRREGCDICAGKAGYPI [C22Y] | 2.2
AEVSWEPGRREGCDICAGKAGCAI [P23A] | 2.32
AEVSWEPGRREGCDICAGKAGCDI [P23D] | 3.85
AEVSWEPGRREGCDICAGKAGCEI [P23E] | 3.1
AEVSWEPGRREGCDICAGKAGCFI [P23F] | 2.04
AEVSWEPGRREGCDICAGKAGCGI [P23G] | 3.82
AEVSWEPGRREGCDICAGKAGCHI [P23H] | 2.61
AEVSWEPGRREGCDICAGKAGCII [P23I] | 3.05

Variant | protein stability index
AEVSWEPGRREGCDICAGKAGCKI [P23K] | 3.04
AEVSWEPGRREGCDICAGKAGCLI [P23L] | 2.92
AEVSWEPGRREGCDICAGKAGCMI [P23M] | 1.48
AEVSWEPGRREGCDICAGKAGCNI [P23N] | 2.62
AEVSWEPGRREGCDICAGKAGCQI [P23Q] | 2.68
AEVSWEPGRREGCDICAGKAGCTI [P23T] | 2.27
AEVSWEPGRREGCDICAGKAGCVI [P23V] | 2.18
AEVSWEPGRREGCDICAGKAGCWI [P23W] | 1.8
AEVSWEPGRREGCDICAGKAGCYI [P23Y] | 1.73
AEVSWEPGRREGCDICAGKAGCPA [I24A] | 4.48
AEVSWEPGRREGCDICAGKAGCPC [I24C] | 5.83
AEVSWEPGRREGCDICAGKAGCPE [I24E] | 4.76
AEVSWEPGRREGCDICAGKAGCPG [I24G] | 3.41
AEVSWEPGRREGCDICAGKAGCPH [I24H] | 5.43
AEVSWEPGRREGCDICAGKAGCPS [I24S] | 3.79
AEVSWEPGRREGCDICAGKAGCPT [I24T] | 3.96
AEVSWEPGRREGCDICAGKAGCPV [I24V] | 3.19
AEVSWEPGRREGCDICAGKAGCPY [I24Y] | 2.54

Variants of: B2
Assay: as above
Conditions: c terminus: a fixed tail appended

Variant | protein stability index
DSCCPAGEFQAMCLLICAEMYQVS [I8E] | 1.48
DSCCPAGVFQAMCLLICAEMYQVS [I8V] | 3.73
DSCCPAGIFQAMCLLICCEMYQVS [A18C] | 2.87
DSCQPAGIFQAMCLLICAEMYQVS [C4Q] | 2.56
ASCCPAGIFQAMCLLICAEMYQVS [D1A] | 3.58
DSCCPAGIFQAMCLLICAEMKQVS [Y21K] | 1.9
DSCCPAGIFQAMILLICAEMYQVS [C13I] | 4.59
DSCCPAGIFQAMCTLICAEMYQVS [L14T] | 2.78
DSCCPAGIFQAMCLLDCAEMYQVS [I16D] | 1.34
DSCCPAGIFQAMCLLICAEMYQVT [S24T] | 3.71
DSCCPAGIFQAMCLLICAEMYWVS [Q22W] | 2.54
DSCCPTGIFQAMCLLICAEMYQVS [A6T] | 2.9
DSCCPAIIFQAMCLLICAEMYQVS [G7I] | 3.28
DSCCPAGIFQAMCLLICAAMYQVS [E19A] | 2.92
DSCCPAGIFQAMCLLICAKMYQVS [E19K] | 2.48
DNCCPAGIFQAMCLLICAEMYQVS [S2N] | 3.1
DSCCPAGIFQAMCLLICAEMYIVS [Q22I] | 2.2
DSCCPAGRFQAMCLLICAEMYQVS [I8R] | 2.55
DSCCPAEIFQAMCLLICAEMYQVS [G7E] | 1.72

Variant | protein stability index
DSCCPAGIFQAMCLLICAEMYRVS [Q22R] | 3.1
DSCCPAGIFQAMCLLITAEMYQVS [C17T] | 2.97
DSCCPAGIFQAMCLLICAEMYAVS [Q22A] | 3.15
DSCCPAGIFQAYCLLICAEMYQVS [M12Y] | 2.9
DSPCPAGIFQAMCLLICAEMYQVS [C3P] | 2.93
DSCCPAGIFQAMCLYICAEMYQVS [L15Y] | 1.98
DSCCPAGIFQAMCLLICAEMYTVS [Q22T] | 3.27
DSCCPAGIFPAMCLLICAEMYQVS [Q10P] | 2.72
DSCCPAGIFQAQCLLICAEMYQVS [M12Q] | 2.04
DSCCPAGIFQAMCLLICAGMYQVS [E19G] | 2.99
DSCCPAGIFQAMYLLICAEMYQVS [C13Y] | 2.77
DSCCPAGIFQAMCLLICAEMRQVS [Y21R] | 2.92
DSCCPAGIFQAMCLLGCAEMYQVS [I16G] | 3.97
DSCCPAGIFQAMCELICAEMYQVS [L14E] | 3.59
DSCCPAGIFQAMCLLICAEMYQVG [S24G] | 2.36
TSCCPAGIFQAMCLLICAEMYQVS [D1T] | 3.52
DSCCPAGIFQAMCLLICAEMYQVF [S24F] | 2.53
DTCCPAGIFQAMCLLICAEMYQVS [S2T] | 3.94
DSCCPAGIFQAMCLLICAEMYQVN [S24N] | 3.14

Variant | protein stability index
DSCCPAGIFDAMCLLICAEMYQVS [Q10D] | 2.75
DSCCPAGIEQAMCLLICAEMYQVS [F9E] | 4.01
DSCCPAGIFQAMCLLICAEMYQCS [V23C] | 3.74
DSCCPAGIFQAMCLLICAEMYYVS [Q22Y] | 2.33
DSCCPAGIFQAMCLIICAEMYQVS [L15I] | 3.1
DSCCPAGPFQAMCLLICAEMYQVS [I8P] | 1.68
DSCCPAYIFQAMCLLICAEMYQVS [G7Y] | 2.8
DSCCPAGIFKAMCLLICAEMYQVS [Q10K] | 3.05
DSCCPAGIFQAMCLLIHAEMYQVS [C17H] | 4.02
DSCCPAGIFQAMCLLICAEMYQDS [V23D] | 1.45
DSCCPLGIFQAMCLLICAEMYQVS [A6L] | 2
DSCCLAGIFQAMCLLICAEMYQVS [P5L] | 2.87
DSCCNAGIFQAMCLLICAEMYQVS [P5N] | 3.01
DSCCPAGIFQAMCLLICAEMYQKS [V23K] | 2.33
DSCGPAGIFQAMCLLICAEMYQVS [C4G] | 2.06
DSCCPAGIFQAMNLLICAEMYQVS [C13N] | 3.63
DSCCPAGIFQAMCLLICAEMYQVY [S24Y] | 3.56
DSCCPAGIFQCMCLLICAEMYQVS [A11C] | 2.69
DSCCPAGIFQAMCLSICAEMYQVS [L15S] | 3.51
